Experimental findings from patent publication US20040120946A1 are described below.

Assay [1] deals with antibody against β1-adrenoceptor in DCM patient serum D (human). As to the kind of experiment: batch adsorption with DCM patient serum D, 37 C, 2 h; antibody left in supernatant read by ELISA on plate-coated β1AR2nd peptide.
Assay [2] deals with antibody against β1-adrenoceptor in DCM patient serum B (human). Nature of the assay: batch adsorption with DCM patient serum B, 37 C, 2 h; antibody left in supernatant read by ELISA on plate-coated β1AR2nd peptide. In general terms: An ELISA detects its analyte on a solid surface through an enzyme-linked reagent.
For assay [3], the target named is antibody against β1-adrenoceptor in DCM patient serum A (human). Nature of the assay: batch adsorption: 50 uL adsorbent with 300 uL DCM patient serum A, 37 C, 2 h; antibody left in supernatant read by ELISA on plate-coated β1AR2nd peptide.
Assay [4] addresses antibody against M2 muscarinic receptor in DCM patient serum C (human). As to the kind of experiment: batch adsorption with DCM patient serum C, 37 C, 2 h; antibody left in supernatant read by ELISA on plate-coated M2R peptide.

Where no end group is shown, it is not given here.

B1: peptides (SEQ ID NOS:11,12) co-immobilized on epoxy-activated Kac (Kac-SEQ ID NOS:11,12) (protein)
peptide 1: HWWRAESDEARRCYNDPKCCDFVTNRAC
peptide 2: VRTVEDGECYIQFFSNAAVTFGTAIC
modifications: cysteine pairing not given here; also: two separate peptides co-immobilized on epoxy-activated Kac
Turning to B1, the Adsorptive capacity in assay [1] was 80%.

B2: peptide (SEQ ID NO:9) immobilized on epoxy-activated Kac (Kac-SEQ ID NO:9) (peptide)
peptide: HWWRAESDEARRCYNDPKCCDFVTNRGAC
modifications: cysteine pairing not given here; also: immobilized on epoxy-activated cellulose gel Kac
In assay [2], B2 registered an Adsorptive capacity of 70%.

B3: peptide (SEQ ID NO:4) immobilized on epoxy-activated GCL2000m (GCL2000m-SEQ ID NO:4) (peptide)
peptide: RAESDEARRCYNDPKCCDFVTNR
For B3, in assay [3], the Adsorptive capacity worked out at 35%.

B4: second loop of β1-adrenoceptor peptide (β1AR2nd) immobilized on CNBr-activated Sepharose 4B (Sepharose 4B-β1AR2nd) (peptide)
peptide: HWWRAESDEARRCYNDPKCCDFVTNR
modifications: cysteine pairing not given here; also: immobilized on CNBr-activated Sepharose 4B
In assay [3], B4 displayed an Adsorptive capacity of 15%.

B5: peptide (SEQ ID NO:10) immobilized on Eupergit C 250 L (Eu-SEQ ID NO:10) (peptide)
peptide: VRTVEDGECYIQFFSNAAVTFGTAIPAKK
modifications: also: immobilized on Eupergit C 250 L
The molecule B5 yielded an Adsorptive capacity in assay [4] of 60%.
